# Key:
# [1] = biological target: TRIM21 (UniProt P19474); experiment: S-tag pull-down after in vitro kinase assay; details: sites S386
# [2] = biological target: TRIM21 (UniProt P19474); experiment: SFB-TRIM21 pull-down from cells, Flag blot; details: reference: WT Flag-rPFKP, EGF; sites S386
substance,measurement,setting,value
PFKP (phosphofructokinase 1 platelet isoform) (from UniProt Q01813) WT PFKP incubated with active GST-AKT1,binding against the reference,[1]; reference: WT PFKP without AKT1,weaker
PFKP (phosphofructokinase 1 platelet isoform) (from UniProt Q01813) PFKP S386A incubated with active GST-AKT1,binding against the reference,[1]; reference: WT PFKP incubated with active GST-AKT1,stronger
"PFKP (phosphofructokinase 1 platelet isoform) (from UniProt Q01813) Flag-rPFKP S386A, EGF",binding against the reference,[2],stronger
